The results in this text go back to article PMC10986471 (Microbiology Spectrum, 2024).

Experiment in all cases: ELISA
Conditions in all cases: both partners purified
Background: ELISA stands for enzyme-linked immunosorbent assay.

Assay [1] addresses RBD of the Alpha variant (B.1.1.7 lineage) (SARS-CoV-2 Alpha (B.1.1.7), N501Y).
In assay [2] the target is RBD of the Beta variant (B.1.351 lineage) (SARS-CoV-2 Beta (B.1.351), K417N | E484K | N501Y).
Assay [3] has as its target RBD of the Delta variant (B.1.617.2 lineage) (SARS-CoV-2 Delta (B.1.617.2), L452R | T478K).
Assay [4] deals with RBD^B.1 (receptor-binding domain of Spike^B.1) (SARS-CoV-2 B.1 (RBD as Wuhan-Hu-1), UniProt P0DTC2).
Assay [5] concerns the target RBD of the Gamma variant (P.1 lineage) (SARS-CoV-2 Gamma (P.1), K417T | E484K | N501Y).

B1: CSW1-1805 (antibody, V domains shown)
VH: EVQLQQSGPELVKPGASLRISCRTSEYTFTENTMYWVKQSHGKSLEWIGGINPNNGDTIYNQQFKGKATLTVDKSSSTAYMELRSLTSEDSAVYYCARDSPVVPGDYWGQGTTLTVSS
VL: DIVMTQSPSSLPVSVGEKVTMRCKSSQSLLYSSNQKNYLAWYQQKSGQSPKLMIYWASTRECGVPDRFTGSGSGTDFTLTISNVKAEDLAVYYCQQYYRYPLTFGVGTKLELK
notes: copies: 2 + 2
As for B1, the dissociation constant Kd (as a rule, the free concentration of one partner at which half of the binding sites on the other are occupied at equilibrium, for simple one-to-one binding) was 0.452 nM in assay [1]; 0.482 nM in assay [2]; 0.262 nM in assay [3]; 0.453 nM in assay [4]; 0.494 nM in assay [5].

B2: CSW2-1353 (antibody, V domains shown)
VH: EVQLVESGGGLVQPKGSLKLSCAASGFNFNTYAMNWVRQAPGKGLEWVARIRSKSENYVIYYADSVKDRFTISRDDSQNMLYLQMNNLKTEDTAMYYCVMSYYGNYWFAYWGQGTLVTVSA
VL: DVVVTQTPLSLPVSLGDQASISCRSSQSLVHNNGNTYLHWYLQKPGQSPKLLIYKVSNRFSGVPDRFSGSGSGTDFTLKISRVEAEDLGVYFCSQSTHIPWTFGGGTKLEIK
notes: copies: 2 + 2
B2: the Kd in assay [1] worked out at 0.152 nM; in assay [3], 0.114 nM; in assay [4] it was 0.118 nM.
